These results are taken from patent US20060099648A1, “Compositions and methods for epitope mapping” (priority 2000, published 2006).

The labels stand for the following.
B1: Peptide# 28 (peptide)
peptide: CKCLL
B2: Peptide# 3 (peptide)
peptide: SQHQC
B3: Peptide# 36 (peptide)
peptide: QEGDK
B4: Peptide# 21 (peptide)
peptide: HLDER
B5: Peptide# 26 (peptide)
peptide: EECKC
B6: Peptide# 17 (peptide)
peptide: GCFRH
B7: Peptide# 23 (peptide)
peptide: DEREE
B8: Peptide# 35 (peptide)
peptide: KQEGD
B9: Peptide# 13 (peptide)
peptide: PQNSG
B10: Peptide# 11 (peptide)
peptide: QCPQN
B11: Peptide# 25 (peptide)
peptide: REECK
B12: Peptide# 14 (peptide)
peptide: QNSGC
B13: Peptide# 31 (peptide)
peptide: LLNYK
B14: Peptide# 34 (peptide)
peptide: YKQEG
B15: Peptide# 29 (peptide)
peptide: KCLLN
B16: Peptide# 12 (peptide)
peptide: CPQNS
B17: Peptide# 24 (peptide)
peptide: EREEC
B18: Peptide# 19 (peptide)
peptide: FRHLD
B19: Peptide# 30 (peptide)
peptide: CLLNY
B20: Peptide# 20 (peptide)
peptide: RHLDE
B21: Peptide# 16 (peptide)
peptide: SGCFR
B22: Peptide# 2 (peptide)
peptide: ISQHQ
B23: Peptide# 15 (peptide)
peptide: NSGCF
B24: Peptide# 32 (peptide)
peptide: LNYKQ
B25: Peptide# 10 (peptide)
peptide: KQCPQ
B26: Peptide# 27 (peptide)
peptide: ECKCL
B27: Peptide# 22 (peptide)
peptide: LDERE
B28: Peptide# 18 (peptide)
peptide: CFRHL
B29: Peptide# 1 (peptide)
peptide: NISQH
B30: Peptide# 33 (peptide)
peptide: NYKQE

Some results are limits rather than exact numbers.

This test concerns the target Human IgG (Calbiochem; San Diego Calif.) (human). Briefly: IgG displaced from peptide pin; competitor MSP1-19.
Turning to B1, the ΔF (%) is below 5%.
Then B2, with below 5%.
B3 had a ΔF (%) below 5%.
Molecule B4 showed a ΔF (%) below 5%.
Then B5, with below 5%; and B6, with below 5%.
Then B7, with below 5%.
As for B8, the figure is below 5%; as for B9, below 5%; as for B10, below 5%.
In the case of B11, the ΔF (%) was below 5%.
As for B12, the figure is below 5%; as for B13, below 5%.
In turn, B14 registered a ΔF (%) below 5%.
As for B15, the figure is below 5%.
As for B16, the figure is below 5%.
Turning to B17, the ΔF (%) is below 5%.
Then B18, with below 5%.
Then B19, with below 5%; and B20, with below 5%; and B21, with below 5%.
Then B22, with below 5%; and B23, with below 5%; and B24, with below 5%.
As to B25, the ΔF (%) was below 5%.
Then B26, with below 5%.
As for B27, the figure is below 5%; as for B28, below 5%; as for B29, below 5%.
B30 displayed a ΔF (%) below 5%.
